According to article doi:10.1101/689042v1:

What was measured:
[1] = substrate: OC[C@@H](O)[C@@H](O)[C@H](O)[C@@H](O)CO; test: purified protein; format: biochemical, Sinorhizobium meliloti; details: 1.5 mM NAD+, 20 mM CAPS pH 11
[2] = substrate: OC[C@@H](O)[C@H](O)[C@H](O)[C@@H](O)CO; test: purified protein; format: biochemical, Sinorhizobium meliloti; details: 1.5 mM NAD+, 20 mM CAPS pH 11

B1: SmoS (SmSmoS) (Sinorhizobium meliloti 1021) (protein)
chain: MKRLEGKSALITGSARGIGRAFAEAYVREGATVAIADIDIERARQAAAEIGPAAYAVQMDVTRQDSIDAAIAATVEHAGGLDILVNNAALFDLAPIVEITRESYEKLFAINVAGTLFTLQAAARQMIAQGRGGKIINMASQAGRRGEALVAIYCATKAAVISLTQSAGLDLIKHRINVNAIAPGVVDGEHWDGVDALFARYENRPRGEKKRLVGEAVPFGRMGTAEDLTGMAIFLASAESDYIVSQTYNVDGGNWMS
[1]
  Km: 2500 µM
  kcat: 25625.6 s⁻¹
[2]
  Km: 1200 µM
  kcat: 3227.1 s⁻¹
